Laboratory results: patent US20080038748

B1: human blood-derived plasmin (PLN) (Sigma) (protein)
chain: KVYLSECKTGNGKNYRGTMSKTKNGITCQKWSSTSPHRPRFSPATHPSEGLEENYCRNPDNDPQGPWCYTTDPEKRYDYCDILECEEECMHCSGENYDGKISKTMSGLECQAWDSQSPHAHGYIPSKFPNKNLKKNYCRNPDRELRPWCFTTDPNKRWELCDIPRCTTPPPSSGPTYQCLKGTGENYRGNVAVTVSGHTCQHWSAQTPHTHNRTPENFPCKNLDENYCRNPDGKRAPWCHTTNSQVRWEYCKIPSCDSSPVSTEQLAPTAPPELTPVVQDCYHGDGQSYRGTSSTTTTGKKCQSWSSMTPHRHQKTPENYPNAGLTMNYCRNPDADKGPWCFTTDPSVRWEYCNLKKCSGTEASVVAPPPVVLLPDVETPSEEDCMFGNGKGYRGKRATTVTGTPCQDWAAQEPHRHSIFTPETNPRAGLEKNYCRNPDGDVGGPWCYTTNPRKLYDYCDVPQCAAPSFDCGKPQVEPKKCPGRVVGGCVAHPHSWPWQVSLRTRFGMHFCGGTLISPEWVLTAAHCLEKSPRPSSYKVILGAHQEVNLEPHVQEIEVSRLFLEPTRKDIALLKLSSPAVITDKVIPACLPSPNYVVADRTECFITGWGETQGTFGAGLLKEAQLPVIENKVCNRYEFLNGRVQSTELCAGHLAGGTDSCQGDSGGPLVCFEKDKYILQGVTSWGLGCARPNKPGVYVRVSRFVTWIEGVMRNN
B2: human matrix metalloprotease 2 (MMP2) (Alexis), APMA-activated (protein)
chain: YNFFPRKPKWDKNQITYRIIGYTPDLDPETVDDAFARAFQVWSDVTPLRFSRIHDGEADIMINFGRWEHGDGYPFDGKDGLLAHAFAPGTGVGGDSHFDDDELWTLGEGQVVRVKYGNADGEYCKFPFLFNGKEYNSCTDTGRSDGFLWCSTTYNFEKDGKYGFCPHEALFTMGGNAEGQPCKFPFRFQGTSYDSCTTEGRTDGYRWCGTTEDYDRDKKYGFCPETAMSTVGGNSEGAPCVFPFTFLGNKYESCTSAGRSDGKMWCATTANYDDDRKWGFCPDQGYSLFLVAAHEFGHAMGLEHSQDPGALMAPIYTYTKNFRLSQDDIKGIQELYGASPDIDLGTGPTPTLGPVTPEICKQDIVFDGIAQIRGEIFFFKDRFIWRTVTPRDKPMGPLLVATFWPELPEKIDAVYEAPQEEKAVFFAGNEYWIYSASTLERGYPKPLTSLGLPPDVQRVDAAFNWSKNKKTYIFAGDKFWRYNEVKKKMDPGFPKLIADAWNAIPDNLDAVVDLQGGGHSYFFKGAYYLKLENQSLKSVKFGSIKSDWLGC
B3: human matrix metalloprotease 9 (MMP9) (Alexis), APMA-activated (protein)
chain: MRTPRCGVPDLGRFQTFEGDLKWHHHNITYWIQNYSEDLPRAVIDDAFARAFALWSAVTPLTFTRVYSRDADIVIQFGVAEHGDGYPFDGKDGLLAHAFPPGPGIQGDAHFDDDELWSLGKGVVVPTRFGNADGAACHFPFIFEGRSYSACTTDGRSDGLPWCSTTANYDTDDRFGFCPSERLYTQDGNADGKPCQFPFIFQGQSYSACTTDGRSDGYRWCATTANYDRDKLFGFCPTRADSTVMGGNSAGELCVFPFTFLGKEYSTCTSEGRGDGRLWCATTSNFDSDKKWGFCPDQGYSLFLVAAHEFGHALGLDHSSVPEALMYPMYRFTEGPPLHKDDVNGIRHLYGPRPEPEPRPPTTTTPQPTAPPTVCPTGPPTVHPSERPTAGPTGPPSAGPTGPPTAGPSTATTVPLSPVDDACNVNIFDAIAEIGNQLYLFKDGKYWRFSEGRGSRPQGPFLIADKWPALPRKLDSVFEERLSKKLFFFSGRQVWVYTGASVLGPRRLDKLGLGADVAQVTGALRSGRGKMLLFSGRRLWRFDVKAQMVDPRSASEVDRMFPGVPLDTHDVFQYREKAYFCQDRFYWRVSSRSELNQVDQVGYVTYDILQCPED

Biological target: T1, human recombinant LAP β1 (R&D), not treated with protease
T1 chain: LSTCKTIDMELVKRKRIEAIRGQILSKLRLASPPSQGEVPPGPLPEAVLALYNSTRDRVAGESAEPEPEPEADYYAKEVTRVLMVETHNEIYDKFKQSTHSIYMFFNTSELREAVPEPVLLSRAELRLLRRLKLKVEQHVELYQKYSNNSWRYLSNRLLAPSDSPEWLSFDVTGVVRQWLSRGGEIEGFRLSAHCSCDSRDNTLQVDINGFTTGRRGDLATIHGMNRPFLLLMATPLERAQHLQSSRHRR

Protein | limited degradation on longer incubation; cleavage sites by N-terminal sequencing | limited degradation; cleavage site by N-terminal sequencing of the fragments | degradation of LAP β1 (SDS-PAGE, silver staining)
B1 | plasmin successively cleaved between 85 Arg and 86 Asp, and between 106 Lys and 107 Glu | plasmin specifically cleaves between 56 Lys and 57 Leu of latent TGF-β | 
B2 |  |  | degradation of LAP could not be confirmed
B3 |  |  | degradation of LAP could not be confirmed
